Measured values from patent US11453711B2, “Fusion proteins of GLP-1 and GDF15 and conjugates thereof” (BEIJING QL BIOPHARMACEUTICAL CO., LTD., priority 2019, dated 2022).

Experiments:
[1] = Body weight and food intake in C57BL/6 mice, fusion protein conjugates, 30 nmol/kg daily 10 days; format: in vivo
How it was run: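 Male C57BL/6 mice received fusion protein conjugates by daily subcutaneous injection, with dosing running from Day 1 to Day 10. Body weight was recorded daily per animal and food intake daily per group. Body weight reduction was expressed relative to vehicle percent loss from Day 1. Cumulative food intake reduction was expressed as percent decrease versus vehicle.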

[2] = Efficacy in db/db mice: body weight, food intake, glucose, biomarkers, daily sc 14 days; format: in vivo
Description: (§1) FIGS. 4A-4D show In vivo efficacy in db/db mice. To evaluate the body weight, food intake and glucose effects of the fusion proteins, 8 week old male db/db mice were dosed everyday subcutaneously with 30 nmol/kg protein for 14 days. […] Compared to Vehicle control: ***, p<0.001. Data are expressed as mean values and standard error (SEM) for FIGS. 4A, 4B and 4D. n=5 for each treatment group. For FIG. 4C, a pooled food intake was measured for each treatment group.
FIGS. 5A-5F show In vivo efficacy in db/db mice. To evaluate the body weight, food intake and glucose effects of the fusion proteins, 8 week old male db/db mice were dosed everyday subcutaneously with different concentrations of proteins for 14 days. FIGS. 5A and 5B show body weight loss upon protein treatments from Day1 to Day15. […] Compared to Vehicle control: ***, p<0.001; **, p<0.01; *, p<0.05; ns, non-statistically significant; FIGS. 5D and 5E show cumulative food intake with protein treatments from Day1 to Day15. […] Compared to Vehicle control: ***, p<0.001**, p<0.01; *, p<0.05; ns, non-statistically significant. Data are expressed as mean values and standard error (SEM) for FIGS. 5A, 5B, 5C and 5F. n=5 for each treatment group. For FIGS. 5D and 5E, a pooled food intake was measured for each treatment group.
as §1, with “8A-8I” for “4A-4D”, “different concentrations of proteins” for “30 nmol/kg protein”, “FIGS. 8D-8F show body weight loss upon dose titrations of fusion protein conjugates. […]” for “Compared to Vehicle control: ***, p<0.001.”, “8A” for “4A, 4B”, “8C-I.” for “4D.”, “8B,” for “4C,”
Selected fusion protein conjugates are assessed in disease animal models (DIO mice, db/db mice, etc.) to determine body weight, food intake, glucose efficacy with dose responses. Some biomarkers are also measured, including fasting insulin, plasma triglyceride, cholesterol, liver triglyceride, and inflammatory biomarkers (ALT, AST and CRP).
8 week old male db/db mice were injected everyday subcutaneously with designated proteins for 14 days. Age matched lean mice were used as control. Food intake and body weight were measured daily and five animals were used for each treatment group. Fasting glucose were tested on designated days as shown in each figure. Body weight was monitored for each individual animal, but food intake for each group animals was measured together. Day 1 and Day 14 are first day and last day of molecule dosage. % BW loss=100*(BW on Day n-BW on Day 1)/(BW on Day 1). Cumulative food intake on Day n represents sum of food intake from Day 1 to Day n. Terminal blood was collected and EDTA-2K plasma was prepared and frozen at −80° C. for biomarker measurement. Liver was also collected and frozen in liquid nitrogen and store at −80° C. Data are indicated as mean values and standard error (SEM) or pooled values. Statistical analysis was performed by One-way ANOVA.

[3] = Efficacy in DIO mice, daily sc 28 days; format: in vivo, DIO male C57BL/6 mice
Description: FIGS. 6A-6E show In vivo efficacy in DIO mice. To evaluate the body weight, food intake and glucose effects of the fusion proteins, 17 week old DIO mice (C57BL/6 mice on high fat diet for 13 weeks) were dosed everyday subcutaneously with different concentrations of proteins for 28 days. […] FIGS. 6D and 6E show body weight change with dose titrations of MLC089 and MLC093 at 3, 10 and 30 nmol/kg. Data are expressed as mean values and standard error (SEM) for FIGS. 6A, 6C, 6D and 6E. n=5 for each treatment group. For FIG. 6B, a pooled food intake was measured for each treatment group.
17 week old DIO male C57BL/6 mice (˜45 g) were injected everyday subcutaneously with designated proteins (i.e., MLC089, MLC093) for 28 days. Food intake and body weight were measured daily and five animals were used for each treatment group. Fasting glucose was also monitored on designated days. Body weight and glucose were monitored for each individual animal, but food intake for each group animals was measured together. Day 1 and Day 28 are first day and last day of molecule dosage. % BW loss=100*(BW on Day n-BW on Day 1)/(BW on Day 1). Cumulative food intake on Day n represents sum of food intake from Day 1 to Day n. Terminal blood was collected and EDTA-2K plasma was prepared and frozen at −80 C for biomarker measurement. Liver was also collected and frozen in liquid nitrogen and store at −80 C. Data are indicated as mean values and standard error (SEM) or pooled values.

[4] = Pharmacokinetic measurement in mouse, single sc dose 30 nmol/kg, plasma ELISA
Description: Each fusion protein was injected subcutaneously into C57BL/6 mice (n=3/group) once and plasma samples were collected at designed time points and analyzed by ELISA method. Plasma concentrations are indicated as mean values and standard error (SEM).
6-8 week old male C57BL/6 mice were administrated in a single subcutaneous dose of 30 nmol/kg of the fusion protein conjugates or unconjugated fusion proteins (i.e., MLC002, MLC004, MLC005, MLC006, MLC007, MLC008, MLC009, MLC013, MLC017, MLC047, MLC074, MLC075, MLC089, MLC093, MLC003 and MLC019) (n=3/group). Plasma samples were collected pre-dose (−5 min), 0.5 hr, 1 hr, 2 hr, 4 hr, 6 hr, 8 hr, 12 hr, 24 hr, 48 hr and 72 hr after the injection. The concentrations of the fusion protein conjugates in the plasma were measured by an ELISA assay which has immunoreactivity towards both GDF15 and intact N-terminal of GLP-1. Based on the graph showing plasma concentration of each protein versus time after subcutaneous injection, the pharmacokinetic parameters (including Tmax, Cmax, T1/2, AUC) were calculated by WinNonlin software.

[5] = 30 nmol/kg, FIG. 8A-C, versus Semaglutide, Tirzepatide and MLC014

B1: MLC093: fusion polypeptide SEQ ID NO: 381 conjugated with Moiety B at 33C of Linker (conjugate)
chain: HGEGTFTSDVSSYLEEQAAKEFIAWLVRGGGGAQPGAQPGAQPGAQPGAQPGAQPGAQPGAQPCQEPGAQPGQEPGAQPGQEPGAQPGQEPGAQPGQEPGAQPGQEPGAQPARQGDHCPLGPGRCCRLHTVRASLEDLGWADWVLSPREVQVTMCIGACPSQFRAANLHAQIKTSLHRLKPDTVPAPCCVPASYNPMVLIQKTDTGVSLQTYDDLLAKDCHCI
modifications: Moiety B conjugated at linker Cys33
Q: For B1, which “Body weight reduction at 30 nmol/kg (% reduction compared to vehicle)(Day11)” value [1] is on record?
A: 26.2%

Q: What about the “Cumulative food intake reduction at 30 nmol/kg (% reduction compared to vehicle)(Day11)” value [1] of the same molecule?
A: 43.8%

Q: What about the body weight loss [2, 5] of the same molecule?
A: more body weight loss, food intake suppression and glycemic control

Q: What about the food intake suppression [2, 5] of the same molecule?
A: more body weight loss, food intake suppression and glycemic control

Q: And the glycemic control [2, 5]?
A: more body weight loss, food intake suppression and glycemic control

Q: And the liver triglyceride content ([2]; Day 15, FIG. 8I)?
A: a trend in reducing liver triglyceride content

Q: What about the efficacy ([2]; FIG. 8 study) of the same molecule?
A: better efficacy than Semaglutide and GDF15 derivative (MLC014)

Q: And the plasma triglyceride concentration ([2]; terminal plasma Day 15, FIG. 8G)?
A: induced the reduction

Q: And the “plasma ALT concentration” value ([2]; terminal plasma Day 15, FIG. 8H)?
A: induced the reduction

Q: What about the “body weight reduction efficacy” value ([3]; DIO mice, 30 nmol/kg daily 28 days, FIG. 6A) of the same molecule?
A: much better body weight reduction efficacy than Semaglutide and GDF15 derivative (MLC014)

Q: And the “dose dependence of body weight reduction” value ([3]; DIO mice, 3, 10 and 30 nmol/kg, FIGS. 6D and 6E)?
A: dose dependent efficacy on body weight reduction

Q: And the fasting glucose ([3]; DIO mice, FIG. 6C)?
A: reached similar level to Semaglutide

Q: What about the efficacy ([3]; DIO study, FIG. 6) of the same molecule?
A: better efficacy than Semaglutide and GDF15 derivative (MLC014)

Q: And the Cmax ([4]; read-out: Cmax (nmol/L), single sc dose 30 nmol/kg)?
A: 120 nmol/L

Q: What about the “AUC0-24 h” value ([4]; single sc dose 30 nmol/kg) of the same molecule?
A: 2.1637 µM·h

Q: What about the “Terminal t1/2” value ([4]; single sc dose 30 nmol/kg) of the same molecule?
A: 15.9 h

Q: And the “Tmax” value ([4]; single sc dose 30 nmol/kg)?
A: 16.0 h
